Our source for the Ki values is patent US20210032299A1 (Eli Lilly, published 2021).

In general, Ki refers to the dissociation constant of the complex between target and ligand, obtained from inhibition or displacement. The low end stands for tighter binding, the high end for weaker binding.

Starred links: 1 amine or outer side, 2 acyl side, 3 side chain; linkers in the order of their positions; H or OH if unused. Non-standard residues stand in square brackets, D forms with d. Groups on a side chain read outwards from the residue. No end group written: not given here. *: point of attachment. C20 diacid = O=C(O)CCCCCCCCCCCCCCCCCCC(=O)*; αMePhe(2-F) = C[C@](N)(Cc1ccccc1F)C(=O)O; γGlu = O=C(O)[C@H](CCC(=O)[*:2])N[*:1]; 4Pal = N[C@@H](Cc1ccncc1)C(=O)O; αMeL = CC(C)C[C@](C)(N)C(=O)O; Orn = NCCC[C@H](N)C(=O)O; AEEA = NCCOCCOCC(=O)O; Aib = CC(C)(N)C(=O)O

Experiment [1] has as its target T1, human glucose-dependent insulinotropic polypeptide (GIP) receptor (human, UniProt P48546 22-466).
T1 construct: whole, on cells; Assayed as crude membranes of stably transfected CHO cells; also called hGIPR; human GIP receptor
T1 sequence (looked up): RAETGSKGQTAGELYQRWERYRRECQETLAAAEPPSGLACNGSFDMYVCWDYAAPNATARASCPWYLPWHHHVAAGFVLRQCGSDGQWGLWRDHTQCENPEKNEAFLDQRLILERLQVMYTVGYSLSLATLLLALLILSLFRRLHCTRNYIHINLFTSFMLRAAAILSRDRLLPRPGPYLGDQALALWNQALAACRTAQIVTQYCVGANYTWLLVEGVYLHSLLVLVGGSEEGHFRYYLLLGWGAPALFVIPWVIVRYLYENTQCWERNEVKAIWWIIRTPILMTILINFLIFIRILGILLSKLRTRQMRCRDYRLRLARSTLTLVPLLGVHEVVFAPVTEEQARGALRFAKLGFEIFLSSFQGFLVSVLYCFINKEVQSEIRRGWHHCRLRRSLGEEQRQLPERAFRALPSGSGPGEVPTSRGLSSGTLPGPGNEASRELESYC
Briefly: SPA, displacement of [125I]-GIP from hGIPR membranes, 0.1% bacitracin.

Another experiment addresses T2, human GLP-1 receptor (human, UniProt P43220 24-463).
T2 construct: whole, on cells; Assayed as crude membranes of stably transfected HEK293 cells; also called hGLP1R; hGLP-1R
Briefly: SPA, displacement of [125I]-GLP-1 from hGLP-1R membranes, 0.1% bacitracin. The method, boiled down: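 Binding buffer: 25 mM HEPES pH 7.4, 2.5 mM CaCl₂, 1 mM MgCl₂, 0.1% bacitracin, 0.003% Tween-20, protease inhibitors without EDTA. Four-parameter nonlinear regression; Kᵢ given as geometric mean ± SEM, n = independent replicates run on different days.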

In the next experiment the target is T3, human glucagon receptor (human, UniProt P47871 26-477).
T3 construct: whole, on cells; Assayed as crude membranes of stably transfected HEK293 cells; also called hGcgR; GcgR
Briefly: SPA, displacement of [125I]-Gcg from hGcgR membranes, 0.1% bacitracin. The method, then: The binding buffer contains 25 mM 4-(2-hydroxyethyl)-1-piperazineethanesulfonic acid (HEPES), pH 7.4, 2.5 mM CaCl₂), 1 mM MgCl₂, 0.1% (w/v) bacitracin (Research Products), 0.003% (w/v) Polyoxyethylenesorbitan monolaurate (TWEEN®-20), and Roche Complete™ Protease Inhibitors without EDTA. […] Plates are sealed and mixed on a plate shaker (setting 6) for 1 minute and read with a PerkinElmer Trilux MicroBeta® scintillation counter after 12 hours of incubation/settling time at room temperature.
Data are analyzed using four-parameter (curve maximum, curve minimum, […], Hill slope) nonlinear regression routines (Genedata Screener, version 12.0.4, Genedata AG, Basal, Switzerland). […] Values for Kᵢ are reported as the geometric mean, with error expressed as the standard error of the mean (SEM) and n is equal to the number of independent replicates (determined in assays performed on different days).
For orientation: Loss of bound radioactivity is the signal in a displacement assay; it reports binding, not function.

T3 sequence (P47871 26-477): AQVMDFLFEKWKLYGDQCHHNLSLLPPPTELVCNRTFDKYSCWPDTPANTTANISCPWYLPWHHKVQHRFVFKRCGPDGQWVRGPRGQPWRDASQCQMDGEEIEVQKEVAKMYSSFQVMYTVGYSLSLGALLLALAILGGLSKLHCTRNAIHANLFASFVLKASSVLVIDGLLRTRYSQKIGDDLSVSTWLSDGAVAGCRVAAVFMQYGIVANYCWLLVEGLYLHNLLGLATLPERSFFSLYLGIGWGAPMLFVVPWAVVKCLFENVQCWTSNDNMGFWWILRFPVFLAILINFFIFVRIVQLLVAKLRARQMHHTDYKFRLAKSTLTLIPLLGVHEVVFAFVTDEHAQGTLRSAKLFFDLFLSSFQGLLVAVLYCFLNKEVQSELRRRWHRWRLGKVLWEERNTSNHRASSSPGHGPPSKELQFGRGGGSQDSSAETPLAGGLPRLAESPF

B1: Example 3 (peptide)
peptide: Y[Aib]EGTFISDYSI[αMeL]LDKK([AEEA-AEEA-γGlu-C20 diacid])HQ[Aib]DFVE[4Pal]LLEAGPSSGAPPPS-NH2
modifications: N-terminus assumed
SMILES: CC[C@H](C)[C@H](NC(=O)[C@H](Cc1ccccc1)NC(=O)[C@@H](NC(=O)CNC(=O)[C@H](CCC(=O)O)NC(=O)C(C)(C)NC(=O)[C@@H](N)Cc1ccc(O)cc1)[C@@H](C)O)C(=O)N[C@@H](CO)C(=O)N[C@@H](CC(=O)O)C(=O)N[C@@H](Cc1ccc(O)cc1)C(=O)N[C@@H](CO)C(=O)N[C@H](C(=O)N[C@@](C)(CC(C)C)C(=O)N[C@@H](CC(C)C)C(=O)N[C@@H](CC(=O)O)C(=O)N[C@@H](CCCCN)C(=O)N[C@@H](CCCCNC(=O)COCCOCCNC(=O)COCCOCCNC(=O)CC[C@H](NC(=O)CCCCCCCCCCCCCCCCCCC(=O)O)C(=O)O)C(=O)N[C@@H](Cc1c[nH]cn1)C(=O)N[C@@H](CCC(N)=O)C(=O)NC(C)(C)C(=O)N[C@@H](CC(=O)O)C(=O)N[C@@H](Cc1ccccc1)C(=O)N[C@H](C(=O)N[C@@H](CCC(=O)O)C(=O)N[C@@H](Cc1ccncc1)C(=O)N[C@@H](CC(C)C)C(=O)N[C@@H](CC(C)C)C(=O)N[C@@H](CCC(=O)O)C(=O)N[C@@H](C)C(=O)NCC(=O)N1CCC[C@H]1C(=O)N[C@@H](CO)C(=O)N[C@@H](CO)C(=O)NCC(=O)N[C@@H](C)C(=O)N1CCC[C@H]1C(=O)N1CCC[C@H]1C(=O)N1CCC[C@H]1C(=O)N[C@@H](CO)C(N)=O)C(C)C)[C@@H](C)CC
For B1, the Ki in experiment [1] turned out to be 0.0525 nM; with human GLP-1 receptor, 381 nM; in the experiment with human glucagon receptor, 338 nM.

B2: Example 1 (peptide)
peptide: YXEGTFISDYSILLDKKAQXDFVNWLLAQGPSSGAPPPS
modifications: D-Ala2; K17((2-[2-(2-Amino-ethoxy)-ethoxy]-acetyl)2-(γ-Glu)-CO-(CH2)18-CO2H); Aib20; C-terminal amide
Consider B2, for which the inhibition constant (Ki) in experiment [1] turned out to be 0.0667 nM; in the experiment with human GLP-1 receptor, 57.8 nM; with human glucagon receptor it was 228 nM.

B3: Example 2 (peptide)
peptide: YXEGTFISDYSILLDKKAQXDFVNWLLAQGPSSGAPPPS
modifications: D-Ala2; K17((2-[2-(2-Amino-ethoxy)-ethoxy]-acetyl)2-(γ-Glu)-CO-(CH2)16-CO2H); Aib20; C-terminal amide
In the case of B3, the results for the inhibitory constant (Ki) (in experiment [1]; with human GLP-1 receptor; in the experiment with human glucagon receptor) were 0.0373 nM, 77.9 nM and 379 nM, respectively.

B4: Example 19 (peptide)
peptide: YXEGTFISDYSILLDKKAQXDFVNWLLAGGPSSGAPPPS
modifications: D-Ala2; K17((2-[2-(2-Amino-ethoxy)-ethoxy]-acetyl)2-(γ-Glu)-CO-(CH2)16-CO2H); Aib20; C-terminal amide
As to B4, the Ki in experiment [1] came out at 0.0469 nM; with human GLP-1 receptor it was 15.2 nM; in the experiment with human glucagon receptor, 335 nM.

B5: Example 28 (peptide)
peptide: YXEGTFISDYSILLDKKAQXEFVNWLLEGGPSSGAPPPS
modifications: D-Ala2; K17((2-[2-(2-Amino-ethoxy)-ethoxy]-acetyl)2-(γ-Glu)-CO-(CH2)16-CO2H); Aib20; C-terminal amide
Consider B5, for which the values for the Ki (in experiment [1]; with human GLP-1 receptor; with human glucagon receptor) were 0.0732 nM, 6.46 nM and 86.8 nM, respectively.

B6: Example 20 (peptide)
peptide: YXEGTFISDYSILLDKKAQXEFVNWLLAQGPSSGAPPPS
modifications: D-Ala2; K17((2-[2-(2-Amino-ethoxy)-ethoxy]-acetyl)2-(γ-Glu)-CO-(CH2)16-CO2H); Aib20; C-terminal amide
On to B6, for which the Ki in experiment [1] worked out at 0.0477 nM; with human GLP-1 receptor it was 79.8 nM; with human glucagon receptor, 216 nM.

B7: Example 16 (peptide)
peptide: YXEGTFISDYSILLDKKAQXDFVEWLLAQGPSSGAPPPS
modifications: D-Ala2; K17((2-[2-(2-Amino-ethoxy)-ethoxy]-acetyl)2-(γ-Glu)-CO-(CH2)16-CO2H); Aib20; C-terminal amide
In the case of B7, the Ki in experiment [1] is 0.0438 nM; in the experiment with human GLP-1 receptor, 99.2 nM; with human glucagon receptor, 549 nM.

B8: Example 29 (peptide)
peptide: YXEGTFISDYSILLDKKAQXEFVEWLLAGGPSSGAPPPS
modifications: D-Ala2; K17((2-[2-(2-Amino-ethoxy)-ethoxy]-acetyl)2-(γ-Glu)-CO-(CH2)16-CO2H); Aib20; C-terminal amide
As for B8, the Ki in experiment [1] amounted to 0.0569 nM; with human GLP-1 receptor, 22.7 nM; with human glucagon receptor, 133 nM.

B9: Example 27 (peptide)
peptide: YXEGTFISDYSILLDKKAQXEFVQWLLAGGPSSGAPPPS
modifications: D-Ala2; K17((2-[2-(2-Amino-ethoxy)-ethoxy]-acetyl)2-(γ-Glu)-CO-(CH2)16-CO2H); Aib20; C-terminal amide
With B9, the inhibitory constant (Ki) was 0.0354 nM in experiment [1], 23.2 nM with human GLP-1 receptor and 401 nM with human glucagon receptor.

B10: Example 17 (peptide)
peptide: YXEGTFISDYSILLDKKAQXDFVNWLLEQGPSSGAPPPS
modifications: D-Ala2; K17((2-[2-(2-Amino-ethoxy)-ethoxy]-acetyl)2-(γ-Glu)-CO-(CH2)16-CO2H); Aib20; C-terminal amide
On to B10, for which the figures for the Ki (in experiment [1]; with human GLP-1 receptor; with human glucagon receptor) were 0.0571 nM, 106 nM and 274 nM, respectively.

B11: Example 122 (peptide)
peptide: Y[Aib]EGTFISDYSI[αMeL]LD[Orn]IHQ[Aib]EFVE[4Pal]K([AEEA-AEEA-γGlu-C20 diacid])LEAGPSSGAPPPS-NH2
modifications: N-terminus assumed
SMILES: CC[C@H](C)[C@H](NC(=O)[C@H](CCCN)NC(=O)[C@H](CC(=O)O)NC(=O)[C@H](CC(C)C)NC(=O)[C@](C)(CC(C)C)NC(=O)[C@@H](NC(=O)[C@H](CO)NC(=O)[C@H](Cc1ccc(O)cc1)NC(=O)[C@H](CC(=O)O)NC(=O)[C@H](CO)NC(=O)[C@@H](NC(=O)[C@H](Cc1ccccc1)NC(=O)[C@@H](NC(=O)CNC(=O)[C@H](CCC(=O)O)NC(=O)C(C)(C)NC(=O)[C@@H](N)Cc1ccc(O)cc1)[C@@H](C)O)[C@@H](C)CC)[C@@H](C)CC)C(=O)N[C@@H](Cc1c[nH]cn1)C(=O)N[C@@H](CCC(N)=O)C(=O)NC(C)(C)C(=O)N[C@@H](CCC(=O)O)C(=O)N[C@@H](Cc1ccccc1)C(=O)N[C@H](C(=O)N[C@@H](CCC(=O)O)C(=O)N[C@@H](Cc1ccncc1)C(=O)N[C@@H](CCCCNC(=O)COCCOCCNC(=O)COCCOCCNC(=O)CC[C@H](NC(=O)CCCCCCCCCCCCCCCCCCC(=O)O)C(=O)O)C(=O)N[C@@H](CC(C)C)C(=O)N[C@@H](CCC(=O)O)C(=O)N[C@@H](C)C(=O)NCC(=O)N1CCC[C@H]1C(=O)N[C@@H](CO)C(=O)N[C@@H](CO)C(=O)NCC(=O)N[C@@H](C)C(=O)N1CCC[C@H]1C(=O)N1CCC[C@H]1C(=O)N1CCC[C@H]1C(=O)N[C@@H](CO)C(N)=O)C(C)C
As to B11, the Ki in experiment [1] turned out to be 0.0311 nM; in the experiment with human glucagon receptor, 957 nM.

B12: Example 121 (peptide)
peptide: Y[Aib]EGT[αMePhe(2-F)]ISDYSILLDKIHQ[Aib]DFVE[4Pal]K([AEEA-AEEA-γGlu-C20 diacid])LEQGPSSGAPPPS-NH2
modifications: N-terminus assumed
SMILES: CC[C@H](C)[C@H](NC(=O)[C@H](CO)NC(=O)[C@H](Cc1ccc(O)cc1)NC(=O)[C@H](CC(=O)O)NC(=O)[C@H](CO)NC(=O)[C@@H](NC(=O)[C@](C)(Cc1ccccc1F)NC(=O)[C@@H](NC(=O)CNC(=O)[C@H](CCC(=O)O)NC(=O)C(C)(C)NC(=O)[C@@H](N)Cc1ccc(O)cc1)[C@@H](C)O)[C@@H](C)CC)C(=O)N[C@@H](CC(C)C)C(=O)N[C@@H](CC(C)C)C(=O)N[C@@H](CC(=O)O)C(=O)N[C@@H](CCCCN)C(=O)N[C@H](C(=O)N[C@@H](Cc1c[nH]cn1)C(=O)N[C@@H](CCC(N)=O)C(=O)NC(C)(C)C(=O)N[C@@H](CC(=O)O)C(=O)N[C@@H](Cc1ccccc1)C(=O)N[C@H](C(=O)N[C@@H](CCC(=O)O)C(=O)N[C@@H](Cc1ccncc1)C(=O)N[C@@H](CCCCNC(=O)COCCOCCNC(=O)COCCOCCNC(=O)CC[C@H](NC(=O)CCCCCCCCCCCCCCCCCCC(=O)O)C(=O)O)C(=O)N[C@@H](CC(C)C)C(=O)N[C@@H](CCC(=O)O)C(=O)N[C@@H](CCC(N)=O)C(=O)NCC(=O)N1CCC[C@H]1C(=O)N[C@@H](CO)C(=O)N[C@@H](CO)C(=O)NCC(=O)N[C@@H](C)C(=O)N1CCC[C@H]1C(=O)N1CCC[C@H]1C(=O)N1CCC[C@H]1C(=O)N[C@@H](CO)C(N)=O)C(C)C)[C@@H](C)CC
As for B12, the Ki came out at 0.103 nM in experiment [1] and 94.9 nM with human glucagon receptor.
